# Results taken from publication doi:10.1101/2022.04.07.487047 (bioRxiv, 2022).
# T1: CydD, subunit of the heterodimeric ABC transporter CydDC (Escherichia coli, UniProt P29018 1-588)
# T1 sequence: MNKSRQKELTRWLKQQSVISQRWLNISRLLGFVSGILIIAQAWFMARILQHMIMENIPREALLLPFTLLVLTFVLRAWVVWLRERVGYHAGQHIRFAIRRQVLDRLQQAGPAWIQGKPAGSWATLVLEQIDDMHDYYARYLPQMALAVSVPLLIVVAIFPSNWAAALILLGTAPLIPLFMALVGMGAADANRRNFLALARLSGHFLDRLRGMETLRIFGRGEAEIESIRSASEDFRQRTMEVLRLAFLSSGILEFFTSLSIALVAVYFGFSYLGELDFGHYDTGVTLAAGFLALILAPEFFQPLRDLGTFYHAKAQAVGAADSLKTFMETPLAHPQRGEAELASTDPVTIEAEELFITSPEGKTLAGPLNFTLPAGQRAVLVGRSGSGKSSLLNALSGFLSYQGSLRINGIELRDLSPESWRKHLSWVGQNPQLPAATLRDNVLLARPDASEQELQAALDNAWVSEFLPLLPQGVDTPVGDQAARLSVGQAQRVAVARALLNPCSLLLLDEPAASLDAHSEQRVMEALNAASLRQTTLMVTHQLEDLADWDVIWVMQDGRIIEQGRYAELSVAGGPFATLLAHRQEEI
# B1: CydC, subunit of the heterodimeric ABC transporter CydDC (wild type) (natural protein, Escherichia coli)
# chain: MRALLPYLALYKRHKWMLSLGIVLAIVTLLASIGLLTLSGWFLSASAVAGVAGLYSFNYMLPAAGVRGAAITRTAGRYFERLVSHDATFRVLQHLRIYTFSKLLPLSPAGLARYRQGELLNRVVADVDTLDHLYLRVISPLVGAFVVIMVVTIGLSFLDFTLAFTLGGIMLLTLFLMPPLFYRAGKSTGQNLTHLRGQYRQQLTAWLQGQAELTIFGASDRYRTQLENTEIQWLEAQRRQSELTALSQAIMLLIGALAVILMLWMASGGVGGNAQPGALIALFVFCALAAFEALAPVTGAFQHLGQVIASAVRISDLTDQKPEVTFPDTQTRVADRVSLTLRDVQFTYPEQSQQALKGISLQVNAGEHIAILGRTGCGKSTLLQQLTRAWDPQQGEILLNDSPIASLNEAALRQTISVVPQRVHLFSATLRDNLLLASPGSSDEALSEILRRVGLEKLLEDAGLNSWLGEGGRQLSGGELRRLAIARALLHDAPLVLLDEPTEGLDATTESQILELLAEMMREKTVLMVTHRLRGLSRFQQIIVMDNGQIIEQGTHAELLARQGRYYQFKQGL
# B2: CydC E500Q (Walker B glutamate to glutamine mutant), subunit of CydDC^E500Q (natural protein, Escherichia coli)
# chain: MRALLPYLALYKRHKWMLSLGIVLAIVTLLASIGLLTLSGWFLSASAVAGVAGLYSFNYMLPAAGVRGAAITRTAGRYFERLVSHDATFRVLQHLRIYTFSKLLPLSPAGLARYRQGELLNRVVADVDTLDHLYLRVISPLVGAFVVIMVVTIGLSFLDFTLAFTLGGIMLLTLFLMPPLFYRAGKSTGQNLTHLRGQYRQQLTAWLQGQAELTIFGASDRYRTQLENTEIQWLEAQRRQSELTALSQAIMLLIGALAVILMLWMASGGVGGNAQPGALIALFVFCALAAFEALAPVTGAFQHLGQVIASAVRISDLTDQKPEVTFPDTQTRVADRVSLTLRDVQFTYPEQSQQALKGISLQVNAGEHIAILGRTGCGKSTLLQQLTRAWDPQQGEILLNDSPIASLNEAALRQTISVVPQRVHLFSATLRDNLLLASPGSSDEALSEILRRVGLEKLLEDAGLNSWLGEGGRQLSGGELRRLAIARALLHDAPLVLLDQPTEGLDATTESQILELLAEMMREKTVLMVTHRLRGLSRFQQIIVMDNGQIIEQGTHAELLARQGRYYQFKQGL
# B3: CydC H85A (histidine to alanine exchange at position 85), subunit of CydDC^H85A (natural protein, Escherichia coli)
# chain: MRALLPYLALYKRHKWMLSLGIVLAIVTLLASIGLLTLSGWFLSASAVAGVAGLYSFNYMLPAAGVRGAAITRTAGRYFERLVSADATFRVLQHLRIYTFSKLLPLSPAGLARYRQGELLNRVVADVDTLDHLYLRVISPLVGAFVVIMVVTIGLSFLDFTLAFTLGGIMLLTLFLMPPLFYRAGKSTGQNLTHLRGQYRQQLTAWLQGQAELTIFGASDRYRTQLENTEIQWLEAQRRQSELTALSQAIMLLIGALAVILMLWMASGGVGGNAQPGALIALFVFCALAAFEALAPVTGAFQHLGQVIASAVRISDLTDQKPEVTFPDTQTRVADRVSLTLRDVQFTYPEQSQQALKGISLQVNAGEHIAILGRTGCGKSTLLQQLTRAWDPQQGEILLNDSPIASLNEAALRQTISVVPQRVHLFSATLRDNLLLASPGSSDEALSEILRRVGLEKLLEDAGLNSWLGEGGRQLSGGELRRLAIARALLHDAPLVLLDEPTEGLDATTESQILELLAEMMREKTVLMVTHRLRGLSRFQQIIVMDNGQIIEQGTHAELLARQGRYYQFKQGL
# Molecular target: T1, CydD, subunit of the heterodimeric ABC …
# Assay: cryo-EM structure
row,Binder,binding result
1,B1,binds
2,B2,binds
3,B3,binds
